Test results as given in patent US20050148508.
Where a chain is given by its changes, count along the chain named.

Assays:
[1] = system: T1, pigment epithelium derived factor (PEDF) isolated from human plasma
T1 sequence: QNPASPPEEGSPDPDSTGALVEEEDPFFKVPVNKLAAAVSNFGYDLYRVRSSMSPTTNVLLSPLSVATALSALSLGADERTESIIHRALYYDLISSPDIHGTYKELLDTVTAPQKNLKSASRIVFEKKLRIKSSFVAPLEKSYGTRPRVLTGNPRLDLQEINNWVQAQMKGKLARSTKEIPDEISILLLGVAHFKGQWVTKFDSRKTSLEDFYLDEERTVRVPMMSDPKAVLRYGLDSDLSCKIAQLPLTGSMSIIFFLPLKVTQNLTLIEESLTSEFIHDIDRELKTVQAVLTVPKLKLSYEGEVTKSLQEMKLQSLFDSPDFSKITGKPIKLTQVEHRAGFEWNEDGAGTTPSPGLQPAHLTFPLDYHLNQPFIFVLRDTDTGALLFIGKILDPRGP

[2] = biological target: T2, recombinant human PEDF expressed in CHO cells (UniProt P36955)
T2 sequence: T1 sequence with M53T, D78E, E79Q

## protein kinase CK2 holoenzyme
[1]
  phosphorylation by CK2 in the presence of poly-L-lysine (autoradiography): both rPEDF and pIPEDF were phosphorylated by CK2 in the presence of poly-L-lysine
  stoichiometry of phosphorylation: ˜0.02 mol of phosphate per mol of plasma PEDF
  stoichiometry of phosphorylation, plasma PEDF heat-treated (15 min at 56° C.) before phosphorylation: reached a plateau at ˜0.12 mol/mol
[2]
  phosphorylation by CK2 in the presence of poly-L-lysine (autoradiography): both rPEDF and pIPEDF were phosphorylated by CK2 in the presence of poly-L-lysine
  stoichiometry of phosphorylation: ˜0.1 mol of phosphate per mol of rPEDF
  stoichiometry of phosphorylation, rPEDF heat-treated (15 min at 56° C.) before phosphorylation: reached a plateau at ˜0.25 mol/mol
